Consider 57 sequences from the supplement of paper PMC10598134.

± gives the standard deviation.

The nature of the data set: collision cross section of modified peptide (TIMS, N2, iRT-aligned); higher = larger / more extended gas-phase ion. Summed up: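 Synthetic peptide pools (~100 fmol/µL in 2% acetonitrile/0.1% formic acid, iRT standard spiked 1:40) were separated on a 120-min nanoflow C18 gradient at 60 °C. They were analysed on a timsTOF Pro/HT (dda-PASEF, nitrogen, ~2.4 mbar) and identified with MaxQuant. 1/K0 was calibrated with three reference ions and aligned run-wise to the median iRT peptide deviation. Collision cross section came from the Mason-Schamp equation, averaging 1–3 technical replicates of the most abundant feature per charge state.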

[1] abbreviates: charge state: 3, modification: Crotonyl.
The mark [2] stands for this setting: charge state: 2, modification: Succinyl.
Setting [3] is: charge state: 3, modification: Succinyl.
The mark [4] stands for this setting: charge state: 2, modification: Butyryl.
[5] abbreviates: charge state: 2, modification: Propionyl.
[6] abbreviates: charge state: 2, modification: Phospho (Y).
Where [7] appears, read: charge state: 2, modification: Formyl.
The mark [8] stands for this setting: charge state: 2, modification: Glutarylation.
[9] abbreviates: charge state: 3, modification: Glutarylation.
Setting [10] is: charge state: 2, modification: Nitro (Y).
The mark [11] stands for this setting: charge state: 2, modification: Acetyl (K).
Where [12] appears, read: charge state: 3, modification: Acetyl (K).
Where [13] appears, read: charge state: 2, modification: Crotonyl.
Where [14] appears, read: charge state: 2, modification: Biotin.
The mark [15] stands for this setting: charge state: 2, modification: Dimethyl (K).
Where [16] appears, read: charge state: 3, modification: Dimethyl (K).
The mark [17] stands for this setting: charge state: 3, modification: Formyl.
Setting [18] is: charge state: 2, modification: Malonyl.
Where [19] appears, read: charge state: 2, modification: GlyGly (K).
Where [20] appears, read: charge state: 3, modification: GlyGly (K).
Where [21] appears, read: charge state: 3, modification: Butyryl.
The mark [22] stands for this setting: charge state: 2, modification: Trimethyl (K).
Setting [23] is: charge state: 3, modification: Trimethyl (K).
The mark [24] stands for this setting: charge state: 2, modification: Methyl (K).
Setting [25] is: charge state: 3, modification: Methyl (K).
[26] abbreviates: charge state: 2, modification: hydroxyisobutyryl.

The sequence “TQDQISNIKYHEEFEK [_TQDQISNIK(Crotonyl)YHEEFEK_]” gave a collision cross section under setting [1] of 560.13 Å².

As to “GTISAPGKVVTAAAQAK [_GTISAPGK(Succinyl)VVTAAAQAK_]”, the collision cross section is 439.98 ± 0.51 Å² under setting [2] and 520.85 ± 1.6 Å² under setting [3].

TTEETSKPK [_TTEETSK(Butyryl)PK_] returned a collision cross section under setting [4] of 338.9 ± 1.2 Å².

Consider GEVQVSDKER [_GEVQVSDK(Propionyl)ER_], for which, under setting [5], the collision cross section stood at 360.54 ± 0.33 Å².

PDTQYTGR [_PDTQY(Phospho (Y))TGR_]: the collision cross section under setting [6] was found to be 335.56 ± 0.067 Å².

On to “STGLELETPSLVPVKK [_STGLELETPSLVPVK(Propionyl)K_]”, for which the collision cross section under setting [5] was 435.15 Å².

Under setting [7], SKLLFSNTAAQK [_SK(Formyl)LLFSNTAAQK_] had a collision cross section of 390.83 ± 0.41 Å².

For the sequence “TLDEILQEKK [_TLDEILQEK(Gluratylation)K_]”, the collision cross section runs as follows: under setting [8], 387.75 ± 3.2 Å²; under setting [9], 452.89 ± 2.4 Å².

For the sequence “SDSGKPYYYNSQTK [_SDSGK(Butyryl)PYYYNSQTK_]”, under setting [4], the collision cross section was found to be 426.68 ± 0.77 Å².

As for “DSSPTTNSKLSALQR [_DSSPTTNSK(Succinyl)LSALQR_]”, the collision cross section was 428.81 ± 1.1 Å² under setting [2] and 496.14 ± 4.3 Å² under setting [3].

CYYGSDTAGR [_CY(Nitro (Y))YGSDTAGR_]: the collision cross section under setting [10] turned out to be 352.25 ± 0.8 Å².

Turning to AEGYEVAHGGR [_AEGY(Nitro (Y))EVAHGGR_], the collision cross section is 365.03 ± 0.17 Å² under setting [10] and 442.95 ± 1.1 Å² (charge state: 3, modification: Nitro (Y)).

On to “HELQANCYEEVKDR [_HELQANCYEEVK(Acetyl (K))DR_]”, for which the collision cross section is listed as 446.57 Å² under setting [11] and 495.42 ± 1.4 Å² under setting [12].

VFSIISSEKELK [_VFSIISSEK(Crotonyl)ELK_] had a collision cross section under setting [13] of 412.67 ± 0.34 Å².

Sequence “YSSNLGNFNYEQRGAFR [_YSSNLGNFNYEQR(Citrullination (R))GAFR_]” came in with a collision cross section (charge state: 3, modification: Citrullination (R)) of 530.01 Å².

As for LLEEEDSKLK [_LLEEEDSK(Biotin)LK_], the collision cross section under setting [14] came out at 405.12 ± 2.5 Å².

Take “TEVLSPNSKVESK [_TEVLSPNSK(Gluratylation)VESK_]”: the collision cross section runs as follows: under setting [8], 408.15 ± 0.5 Å²; under setting [9], 453.95 ± 1.7 Å².

For the sequence “DESFLGKLGGTLAR [_DESFLGK(Dimethyl (K))LGGTLAR_]”, the collision cross section runs as follows: under setting [15], 418.8 ± 0.75 Å²; under setting [16], 466.85 ± 1.2 Å².

Regarding “VNVEAPDVNLEGLGGKLK [_VNVEAPDVNLEGLGGK(Gluratylation)LK_]”, the collision cross section is, setting by setting: under setting [8], 464.05 ± 2.1 Å²; under setting [9], 550.01 Å².

Turning to “IHVQSSSDSSDEPAEKR [_IHVQSSSDSSDEPAEK(Formyl)R_]”, the collision cross section is, setting by setting: under setting [7], 447.23 Å²; under setting [17], 491.34 ± 2.1 Å².

In the case of TTEETSKPK [_TTEETSK(Malonyl)PK_], the collision cross section under setting [18] was determined as 336.7 ± 0.59 Å².

Regarding “FLQEFYQDDELGKK [_FLQEFYQDDELGK(GlyGly (K))K_]”, the collision cross section is recorded as 460.97 ± 1.6 Å² under setting [19] and 512.67 ± 1.3 Å² under setting [20].

As for “SLFFGGKGAPLQR [_SLFFGGK(Butyryl)GAPLQR_]”, the collision cross section runs as follows: under setting [4], 406.8 ± 0.75 Å²; under setting [21], 492.14 ± 2.1 Å².

As for LQLEIDQKK [_LQLEIDQK(Acetyl (K))K_], under setting [11], the collision cross section was found to be 364.82 ± 0.76 Å².

For “VGVEVPDVNIEGPEGKLK [_VGVEVPDVNIEGPEGK(Acetyl (K))LK_]”, the collision cross section is, setting by setting: under setting [11], 456.04 ± 2.4 Å²; under setting [12], 513.89 Å².

Under setting [13], DHLSDKESK [_DHLSDK(Crotonyl)ESK_] came in with a collision cross section of 361.16 ± 11 Å².

For “GQKGEPGLPGHPGK [_GQKGEPGLP(Hydroxyproline)GHPGK_]”, the collision cross section runs as follows: (charge state: 2, modification: Hydroxyproline) 379.44 ± 1.1 Å²; (charge state: 3, modification: Hydroxyproline) 420.23 ± 0.34 Å².

As for LGNDFHTNKR [_LGNDFHTNK(Formyl)R_], the collision cross section runs as follows: under setting [7], 366.48 ± 1.5 Å²; under setting [17], 438.07 ± 2.4 Å².

As to “SLFFGGKGAPLQR [_SLFFGGK(Trimethyl (K))GAPLQR_]”, the collision cross section is recorded as 413.8 ± 0.016 Å² under setting [22] and 456.34 ± 1.8 Å² under setting [23].

Turning to “LLEEEDSKLK [_LLEEEDSK(Trimethyl (K))LK_]”, the collision cross section is 388.34 ± 1.1 Å² under setting [22] and 441.46 ± 2.4 Å² under setting [23].

For the sequence SSFAYKDQNENR [_SSFAYK(Formyl)DQNENR_], the collision cross section under setting [7] is given as 394.76 ± 0.75 Å².

Turning to “VGIDTPDIDIHGPEGKLK [_VGIDTPDIDIHGPEGK(Crotonyl)LK_]”, the collision cross section is, setting by setting: under setting [13], 496.91 Å²; under setting [1], 540.02 ± 1.3 Å².

IQQELQTAKK [_IQQELQTAK(Butyryl)K_] returned a collision cross section under setting [4] of 385.32 ± 2.2 Å² and a collision cross section under setting [21] of 441.3 Å².

For the sequence LDHLAEKFR [_LDHLAEK(Succinyl)FR_], the collision cross section under setting [2] was determined as 369.4 ± 0.74 Å² and the collision cross section under setting [3] is 444.17 ± 3.4 Å².

For “SNEEGSEEKGPEVR [_SNEEGSEEK(Methyl (K))GPEVR_]”, the collision cross section came out at 394.85 ± 7.3 Å² under setting [24] and 481.38 ± 2.6 Å² under setting [25].

“SLEEEGAAHSGKR [_SLEEEGAAHSGK(Crotonyl)R_]”: the collision cross section worked out at 420.35 ± 1.1 Å² under setting [13] and 486.66 ± 11 Å² under setting [1].

Turning to “ITLSKHQNVQLPR [_ITLSK(Butyryl)HQNVQLPR_]”, the collision cross section is 443.37 ± 0.53 Å² under setting [4] and 503.02 ± 28 Å² under setting [21].

Take “GAEKTEVAEPR [_GAEK(Dimethyl (K))TEVAEPR_]”: the collision cross section is, setting by setting: under setting [15], 374.44 ± 1.3 Å²; under setting [16], 439.06 ± 1.6 Å².

The sequence “DYSSGFGGKYGVQADR [_DYSSGFGGK(hydroxyisobutyryl)YGVQADR_]” showed a collision cross section under setting [26] of 442.2 ± 0.79 Å².

As to SLEEEGAAHSGKR [_SLEEEGAAHSGK(Biotin)R_], the collision cross section reads like this: under setting [14], 428.85 Å²; (charge state: 3, modification: Biotin) 493.19 Å².

As to “LTSLNVKYNNDK [_LTSLNVK(GlyGly (K))YNNDK_]”, the collision cross section is given as 424.54 ± 1.4 Å² under setting [19] and 491.6 ± 1.1 Å² under setting [20].

Sequence “VFSIISSEKELK [_VFSIISSEK(Acetyl (K))ELK_]” showed a collision cross section under setting [11] of 405.7 ± 0.9 Å².

Regarding “ATVASSTQKFQDLGVK [_ATVASSTQK(Acetyl (K))FQDLGVK_]”, the collision cross section under setting [11] is recorded as 445.22 ± 2.2 Å² and the collision cross section under setting [12] came to 493.63 ± 0.33 Å².

The sequence “LAEQEAHYAVR [_LAEQEAHY(Phospho (Y))AVR_]” registered a collision cross section under setting [6] of 408.57 ± 0.76 Å² and a collision cross section (charge state: 3, modification: Phospho (Y)) of 482.98 ± 0.1 Å².

Consider “FNALFAQGNYSEAAK [_FNALFAQGNY(Phospho (Y))SEAAK_]”, for which, under setting [6], the collision cross section worked out at 426.34 ± 0.64 Å².

With “SHLRHAIPSAER [_SHLR(Methyl (R))HAIPSAER_]”, the collision cross section was 404.4 Å² (charge state: 2, modification: Methyl (R)) and 477.29 ± 19 Å² (charge state: 3, modification: Methyl (R)).

With “SGYSSPGSPGTPGSR [_SGYSSPGSPGTPGS(HexNAc (ST))R_]”, the collision cross section (charge state: 2, modification: HexNAc (ST)) was 394.87 ± 0.13 Å².

“PRLPATGTFK [_PR(Citrullination (R))LPATGTFK_]” registered a collision cross section (charge state: 2, modification: Citrullination (R)) of 351.67 ± 5.4 Å².

Sequence “FIHQQPQSSSPVYGSSAK [_FIHQQPQSSSPVYGS(HexNAc (ST))SAK_]” yielded a collision cross section (charge state: 3, modification: HexNAc (ST)) of 528.58 ± 0.18 Å².

The sequence IGNSYFKEEK [_IGNSYFK(Acetyl (K))EEK_] gave a collision cross section under setting [11] of 372.71 ± 0.4 Å².

Turning to KYEEIDNAPEER [_K(Malonyl)YEEIDNAPEER_], the collision cross section is, setting by setting: under setting [18], 410.49 ± 0.6 Å²; (charge state: 3, modification: Malonyl) 491.92 ± 5.7 Å².

Sequence DHLSDKESK [_DHLSDK(Acetyl (K))ESK_] displayed a collision cross section under setting [11] of 350.98 ± 1.6 Å².

For “GETASKLQSEISR [_GETASK(Methyl (K))LQSEISR_]”, the collision cross section by setting is: under setting [24], 400.35 Å²; under setting [25], 463.3 ± 3.8 Å².

On to LDHLAEKFR [_LDHLAEK(Crotonyl)FR_], for which the collision cross section is listed as 378.01 ± 0.89 Å² under setting [13] and 440.09 ± 1.3 Å² under setting [1].

Consider “ANEKTESSSAQQVAVSR [_ANEK(Gluratylation)TESSSAQQVAVSR_]”, for which the collision cross section turned out to be 449.31 ± 1.1 Å² under setting [8] and 546.17 ± 2 Å² under setting [9].

“TTEETSKPK [_TTEETSK(hydroxyisobutyryl)PK_]” gave a collision cross section under setting [26] of 347.15 ± 3.9 Å².

For “VLTANSNPSSPSAAKR [_VLTANSNPSSPSAAK(Gluratylation)R_]”, the collision cross section by setting is: under setting [8], 432.88 ± 2 Å²; under setting [9], 532.45 ± 0.12 Å².
